This is an account of results in US20250145697A1 (WASHINGTON UNIVERSITY, published 2025).

The target of test [1] is T1, recombinant alipidated human ApoE4 (human, UniProt P02649 19-317).
T1 construct: mature; full length recombinant protein made in E. coli or bought; biotinylated for SPR; position 112 is counted on the mature protein, not on the precursor entry; also called recApoE; non-lipidated ApoE4
Put plainly: direct ELISA on coated recombinant alipidated ApoE (0.5 ug/ml). The gist of the method: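 Plates coated overnight with full-length recombinant alipidated ApoE (0.5 μg/ml), from E. coli or a commercial source, were washed, blocked and incubated with anti-ApoE antibody. Binding was detected with goat anti-mouse IgG-HRP to generate dose-response curves.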
Target sequence in this assay (P02649 19-317 C130R): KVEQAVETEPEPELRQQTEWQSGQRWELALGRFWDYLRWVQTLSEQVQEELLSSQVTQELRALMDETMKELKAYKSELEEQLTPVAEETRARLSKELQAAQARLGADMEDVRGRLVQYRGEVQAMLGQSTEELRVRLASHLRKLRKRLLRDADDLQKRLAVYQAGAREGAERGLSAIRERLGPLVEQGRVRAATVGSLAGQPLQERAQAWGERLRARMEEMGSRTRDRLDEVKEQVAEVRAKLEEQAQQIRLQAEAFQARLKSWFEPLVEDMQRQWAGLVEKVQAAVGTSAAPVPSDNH

The target in test [2] is T1, recombinant alipidated human ApoE4. Put plainly: SPR (Biacore T200), biotinylated ApoE4 captured on anti-biotin mAb chip, antibody injected, 1:1 fit. A digest of the protocol: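 Biotinylated recombinant alipidated human ApoE4 (E. coli-expressed or commercial) captured on immobilized anti-biotin mAb; antibody serial dilutions injected at 30 μl/min, e.g. 3-min association, 10-min dissociation. Responses reference-subtracted against irrelevant-IgG flow cell; kinetics from 1:1 Langmuir simultaneous fit of Kon and Koff.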
Target sequence in this assay (P02649 19-317 C130R): as above

For test [3] the target is unchanged. Briefly: ELISA, plate coated with 0.5 ug/ml recombinant apoE4, HRP goat anti-mouse detection, OD450. On the procedure:
ELISA plates were coated with 0.5 μg/ml of recombinant apoE2 (square), apoE3 (open circle), or apoE4 (closed circle). Then different concentrations of (A) HJ151, (B) HJ153, (C) HJ154, or (D) HJ156 were loaded on the plates. Horse-radish peroxidase labeled goat anti-mouse secondary antibodies were used to detect binding. […] HJ151 is specific for ApoE4 and HJ156 binds only ApoE3 and ApoE4. FIG. 5E-H are graphs depicting surface plasmon resonance profiles for various antibodies. Anti-ApoE antibodies were serially diluted 3-fold (starting at 100 nM for HJ153 (E), and 1000 nM for HJ151 (F), and […] (G)) for detection of binding to biotinylated-recombinant apoE4 captured on a streptavidin chip. Samples were injected at a flow rate of 30 μl/minute. (H) Apparent KD values of HJ151, HJ153 and HJ156 were calculated based on the SPR experiment.
ELISA plates were coated with 0.5 μg/ml of recombinant apoE2, apoE3, or apoE4. Then different concentrations of HJ151 (FIG. 5A), HJ153 (FIG. 5B), HJ154 (FIG. 5C), or HJ156 (FIG. 5D) were loaded on the plates. Horse-radish peroxidase labeled goat anti-mouse secondary antibodies were used to detect binding. […] HJ151 is specific for ApoE4 and HJ156 binds only ApoE3 and ApoE4. Surface plasmon resonance profiles for various antibodies was also performed.

Test [4] addresses T2, ApoE4 amino acids 54-164, expressed on yeast (human, UniProt P02649 72-182).
T2 construct: with myc tag, on yeast cells; expression in yeast printed as Low; range counts on the mature protein; also called helix2 + 3 + 4
T2 chain: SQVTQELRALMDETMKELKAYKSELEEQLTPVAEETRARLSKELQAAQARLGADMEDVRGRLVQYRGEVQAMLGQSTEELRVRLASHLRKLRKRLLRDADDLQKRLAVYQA
Put plainly: yeast display of myc-tagged ApoE4 fragment, antibody staining. Here is the method:
(§1) Epitope binding of various anti-ApoE antibodies was evaluated multiple ways. Different sequences of human ApoE were expressed on the surface of yeast by yeast display using different plasmids. Different anti-ApoE antibodies were then assessed to determine binding to the different ApoE sequences by immunofluorescence of the yeast cell surface (Table 4). Because none of the anti-ApoE antibodies tested here recognize murine ApoE, the epitope was further narrowed down by comparison of the murine and human ApoE sequences as shown in Tables 4 and 5. DNA constructs containing different regions of ApoE4 with myc tag were transformed into yeast cells. Yeast cells were incubated with HJ15x to detect binding or anti-myc antibody to detect expression.

Test [5] concerns the target T3, ApoE4 amino acids 24-164, expressed on yeast (human, UniProt P02649 42-182).
T3 construct: with myc tag, on yeast cells; range counts on the mature protein; also called helix1 + 2 + 3 + 4
T3 chain: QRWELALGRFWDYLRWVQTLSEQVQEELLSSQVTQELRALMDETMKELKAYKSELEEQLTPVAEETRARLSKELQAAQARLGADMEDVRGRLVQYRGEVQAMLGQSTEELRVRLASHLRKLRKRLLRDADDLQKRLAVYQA
The description is as above. On the procedure:
as §1

Test [6] has as its target T4, ApoE4 amino acids 1-210, expressed on yeast (human, UniProt P02649 19-228).
T4 construct: with myc tag, on yeast cells; range counts on the mature protein; also called N terminal domain; not shown: myc tag and yeast surface-display partner
T4 chain: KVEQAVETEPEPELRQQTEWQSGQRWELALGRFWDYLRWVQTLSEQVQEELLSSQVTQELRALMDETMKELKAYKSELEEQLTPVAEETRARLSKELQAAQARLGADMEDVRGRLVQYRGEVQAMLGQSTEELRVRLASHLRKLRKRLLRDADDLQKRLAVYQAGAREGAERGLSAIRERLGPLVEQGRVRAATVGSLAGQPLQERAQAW
Described as above. Here is the method:
as §1

In test [7] the target is T5, ApoE4 amino acids 1-164, expressed on yeast (human, UniProt P02649 19-182).
T5 construct: with myc tag, on yeast cells; range counts on the mature protein; also called up to helix 4; not shown: myc tag and yeast surface-display partner
T5 chain: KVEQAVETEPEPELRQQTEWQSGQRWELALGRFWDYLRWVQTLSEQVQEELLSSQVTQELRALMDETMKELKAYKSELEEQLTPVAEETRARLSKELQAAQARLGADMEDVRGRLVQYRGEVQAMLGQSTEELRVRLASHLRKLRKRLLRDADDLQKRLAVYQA
The description is as above. Here is the method: as §1

B1: HJ151 (antibody, V domains shown)
VH: QVQLQQSGAELVRPGASVTLSCKASGYTFTDYEMHWVKQTPVHGLEWIGVIDPEKGGTAYNQKFKGKAILTADKSSSTAYMDLRSLTSEDSAVYYCLKDSWGQGTTLTVSS
VL: DVLMTQTPLSLPVSLGDQASISCRSSQTIVHSDGNTYLEWYLQKPGQSPKLLIYKVSNRFSGVPDRFSGSGSGTYFTLKISRVEAEDLGVYYCFQGSHVPCTFGGGTKLEIKR
notes: murine monoclonal antibody from hybridoma; also called HJ151B (biotinylated)
Consider B1, for which the EC50 in test [1] stood at 440 pM. The Kd in test [2] came to 60200 pM. Moreover, in test [2], the koff came to 0.00119 s⁻¹. Besides, the kon in test [2] turned out to be 19700 M⁻¹ s⁻¹. Further, the “EC50 (read off the curve)” value in test [3] was roughly 500 pM. The binding result in test [4], in test [5], in test [6] and in test [7] was “binds” throughout.

B2: HJ156 (antibody, V domains shown)
VH: QVQLQQSGPELVKPGASVKISCKASGYIFTDYYINWVKRRPGQGLEWIGWIFPGSGVSYYNEQFKGKATLTVDKPSNTAYIFLSRLTSEDSAVYFCARYYSSSPFAYWGQGTLVTVSA
VL: DVLMTQTPLSLPVSLGDQASISCRSSQNIIHSNGNTYLEWFLQRPGQSPELLIYKVSNRFSGVPDRFSGSGSGTDFTLKISRVEAEDLGVYYCFQGSHVPYTFGGGTKLEIKR
notes: murine monoclonal antibody from hybridoma; also called HJ156B (biotinylated)
Turning to B2, in test [1], the EC50 came out at 620 pM. In addition, the Kd in test [2] was 216000 pM. The koff in test [2] turned out to be 0.00449 s⁻¹. In addition, in test [2], the kon came to 20700 M⁻¹ s⁻¹. For the same molecule, in test [3], the “EC50 (read off the curve)” value was roughly 1000 pM. Also, the binding result in test [4], in test [5], in test [6] and in test [7] was “binds” in each case.

B3: HJ154 (antibody, V domains shown)
VH: QVQLQQPGTEFVMSGASVMLSCKASGYIFTNYWLHWVKQRPGHGLEWIGEIDPSDSYSICNDNFKGKSTLTVDKSSSTAYMQLSSLTSEDSAVYYCAGSLGRVGLAYWGQGTLVTVST
VL: QIVLTQSPAIMSASPGEKVTMSCSASSSVSNMYWYQQKPGSSPKSWIYRTSNLASGVPARFSGSGSGTSYSLTISNMEAEDAATYYCQHYQNYPLTFGAGTKLELKR
notes: murine monoclonal antibody from hybridoma; also called HJ154B (biotinylated)
Turning to B3, the EC50 in test [1] was 260 pM. Further, the Kd in test [2] turned out to be 675 pM. Besides, in test [2], the koff is 0.000348 s⁻¹. For the same molecule, the kon in test [2] was 516000 M⁻¹ s⁻¹. Moreover, the “EC50 (read off the curve)” value in test [3] is roughly 300 pM. Further, the binding result in test [4], in test [5], in test [6] and in test [7] was “binds” each time.
